Test results from the supplement of paper PMC10065799, “High-throughput profiling of sequence recognition by tyrosine kinases and SH2 domains using bacterial peptide display” (eLife, 2023).

Key:
SHP2-C SH2 = assay: SH2 binding enrichment of the phosphorylated peptide, bacterial display (enrichment ratio); higher = better substrate or ligand; peptides without Tyr show the background
c-Src SH2 = assay: as above
Grb2 SH2 = Grb2 SH2 (UniProt P62993); assay: as above
Fyn = Fyn (UniProt P06241); assay: phosphorylation enrichment, bacterial display (enrichment ratio); higher = better substrate or ligand; peptides without Tyr show the background
c-Abl (mouse) = assay: as above
FGFR1 = FGFR1 (UniProt P11362); assay: as above
Sequence of FGFR1 (P11362 whole entry, looked up): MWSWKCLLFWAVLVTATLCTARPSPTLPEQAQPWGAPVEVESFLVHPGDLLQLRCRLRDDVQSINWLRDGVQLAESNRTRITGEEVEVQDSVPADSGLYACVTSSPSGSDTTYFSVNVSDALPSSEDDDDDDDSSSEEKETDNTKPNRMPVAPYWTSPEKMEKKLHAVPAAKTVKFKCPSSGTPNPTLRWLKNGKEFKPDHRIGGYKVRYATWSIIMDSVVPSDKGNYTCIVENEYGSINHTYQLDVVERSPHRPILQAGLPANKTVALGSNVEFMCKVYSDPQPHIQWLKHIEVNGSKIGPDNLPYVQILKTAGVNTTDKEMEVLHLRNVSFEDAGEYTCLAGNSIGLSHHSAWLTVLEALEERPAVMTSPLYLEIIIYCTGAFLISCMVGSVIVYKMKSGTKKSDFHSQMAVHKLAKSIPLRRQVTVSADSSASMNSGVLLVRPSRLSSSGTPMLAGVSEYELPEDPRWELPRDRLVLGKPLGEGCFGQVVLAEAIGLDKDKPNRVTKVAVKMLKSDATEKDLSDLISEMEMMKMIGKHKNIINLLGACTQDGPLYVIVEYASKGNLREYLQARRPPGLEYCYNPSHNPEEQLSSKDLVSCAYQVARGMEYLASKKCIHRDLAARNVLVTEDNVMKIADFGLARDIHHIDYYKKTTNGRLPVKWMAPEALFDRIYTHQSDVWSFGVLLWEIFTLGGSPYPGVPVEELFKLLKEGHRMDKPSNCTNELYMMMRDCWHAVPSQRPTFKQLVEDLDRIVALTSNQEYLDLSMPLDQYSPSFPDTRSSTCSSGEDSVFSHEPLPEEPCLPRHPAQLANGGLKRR

EPHB2 = EPHB2 (UniProt P29323); assay: as above
Sequence of EPHB2 (P29323 whole entry, looked up): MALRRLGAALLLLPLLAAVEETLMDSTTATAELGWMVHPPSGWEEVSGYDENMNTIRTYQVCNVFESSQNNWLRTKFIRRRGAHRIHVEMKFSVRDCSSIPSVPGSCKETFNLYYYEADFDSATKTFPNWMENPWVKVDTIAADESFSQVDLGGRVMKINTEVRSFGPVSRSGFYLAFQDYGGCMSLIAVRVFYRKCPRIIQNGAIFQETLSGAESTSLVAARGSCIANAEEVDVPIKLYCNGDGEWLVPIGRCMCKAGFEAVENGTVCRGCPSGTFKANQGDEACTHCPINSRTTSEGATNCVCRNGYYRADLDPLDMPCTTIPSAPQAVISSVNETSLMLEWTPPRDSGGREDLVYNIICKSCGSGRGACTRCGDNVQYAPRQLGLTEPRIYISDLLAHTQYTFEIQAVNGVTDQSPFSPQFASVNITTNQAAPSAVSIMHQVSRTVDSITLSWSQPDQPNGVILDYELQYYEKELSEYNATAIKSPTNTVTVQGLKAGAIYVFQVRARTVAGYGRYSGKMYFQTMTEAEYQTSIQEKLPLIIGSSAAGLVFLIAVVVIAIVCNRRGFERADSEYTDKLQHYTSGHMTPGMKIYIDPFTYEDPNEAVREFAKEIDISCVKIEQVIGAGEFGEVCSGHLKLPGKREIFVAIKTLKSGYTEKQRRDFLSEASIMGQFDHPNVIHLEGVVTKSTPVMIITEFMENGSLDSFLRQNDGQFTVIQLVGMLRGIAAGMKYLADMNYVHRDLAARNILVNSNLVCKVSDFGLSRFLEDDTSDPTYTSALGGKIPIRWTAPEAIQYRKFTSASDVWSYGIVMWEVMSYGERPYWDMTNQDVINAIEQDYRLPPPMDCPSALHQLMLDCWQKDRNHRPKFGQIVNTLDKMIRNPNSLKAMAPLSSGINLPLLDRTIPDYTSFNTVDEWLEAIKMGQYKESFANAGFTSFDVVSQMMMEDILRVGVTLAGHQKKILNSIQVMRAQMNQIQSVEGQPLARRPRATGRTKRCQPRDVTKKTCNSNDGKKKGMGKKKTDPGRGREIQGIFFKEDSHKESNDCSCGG

Hck = Hck (UniProt P08631); assay: as above
Fes = Fes (UniProt P07332); assay: as above
AncSZ = assay: as above
EPHB1 = EPHB1 (UniProt P54762); assay: as above
Sequence of EPHB1 (P54762 whole entry, looked up): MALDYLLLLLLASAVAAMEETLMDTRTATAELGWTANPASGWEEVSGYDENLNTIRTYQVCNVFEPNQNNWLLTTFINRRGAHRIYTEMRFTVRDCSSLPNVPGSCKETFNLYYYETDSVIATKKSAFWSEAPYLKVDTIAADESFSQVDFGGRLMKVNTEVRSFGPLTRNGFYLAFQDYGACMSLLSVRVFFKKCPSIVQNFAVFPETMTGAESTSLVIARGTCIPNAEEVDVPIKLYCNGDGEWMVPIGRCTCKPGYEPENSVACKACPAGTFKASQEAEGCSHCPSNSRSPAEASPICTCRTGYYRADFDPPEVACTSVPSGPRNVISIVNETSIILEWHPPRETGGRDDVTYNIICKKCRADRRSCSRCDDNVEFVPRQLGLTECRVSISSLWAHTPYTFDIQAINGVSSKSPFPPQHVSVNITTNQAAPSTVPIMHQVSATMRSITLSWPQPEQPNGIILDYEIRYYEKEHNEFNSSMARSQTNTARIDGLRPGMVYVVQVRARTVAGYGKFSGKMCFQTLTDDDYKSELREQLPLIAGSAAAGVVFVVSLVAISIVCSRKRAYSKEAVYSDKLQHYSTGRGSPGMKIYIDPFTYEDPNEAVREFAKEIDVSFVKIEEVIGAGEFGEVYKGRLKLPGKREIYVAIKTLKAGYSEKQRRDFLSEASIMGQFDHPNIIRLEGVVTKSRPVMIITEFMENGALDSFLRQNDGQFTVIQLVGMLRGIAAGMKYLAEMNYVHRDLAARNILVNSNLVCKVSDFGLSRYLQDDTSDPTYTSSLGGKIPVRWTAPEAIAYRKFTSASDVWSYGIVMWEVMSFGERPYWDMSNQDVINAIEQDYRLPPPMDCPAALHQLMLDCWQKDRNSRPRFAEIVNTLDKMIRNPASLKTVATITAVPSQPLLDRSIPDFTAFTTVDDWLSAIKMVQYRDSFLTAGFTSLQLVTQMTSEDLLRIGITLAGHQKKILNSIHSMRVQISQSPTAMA

FGFR3 = FGFR3 (UniProt P22607); assay: as above
Sequence of FGFR3 (P22607 whole entry, looked up): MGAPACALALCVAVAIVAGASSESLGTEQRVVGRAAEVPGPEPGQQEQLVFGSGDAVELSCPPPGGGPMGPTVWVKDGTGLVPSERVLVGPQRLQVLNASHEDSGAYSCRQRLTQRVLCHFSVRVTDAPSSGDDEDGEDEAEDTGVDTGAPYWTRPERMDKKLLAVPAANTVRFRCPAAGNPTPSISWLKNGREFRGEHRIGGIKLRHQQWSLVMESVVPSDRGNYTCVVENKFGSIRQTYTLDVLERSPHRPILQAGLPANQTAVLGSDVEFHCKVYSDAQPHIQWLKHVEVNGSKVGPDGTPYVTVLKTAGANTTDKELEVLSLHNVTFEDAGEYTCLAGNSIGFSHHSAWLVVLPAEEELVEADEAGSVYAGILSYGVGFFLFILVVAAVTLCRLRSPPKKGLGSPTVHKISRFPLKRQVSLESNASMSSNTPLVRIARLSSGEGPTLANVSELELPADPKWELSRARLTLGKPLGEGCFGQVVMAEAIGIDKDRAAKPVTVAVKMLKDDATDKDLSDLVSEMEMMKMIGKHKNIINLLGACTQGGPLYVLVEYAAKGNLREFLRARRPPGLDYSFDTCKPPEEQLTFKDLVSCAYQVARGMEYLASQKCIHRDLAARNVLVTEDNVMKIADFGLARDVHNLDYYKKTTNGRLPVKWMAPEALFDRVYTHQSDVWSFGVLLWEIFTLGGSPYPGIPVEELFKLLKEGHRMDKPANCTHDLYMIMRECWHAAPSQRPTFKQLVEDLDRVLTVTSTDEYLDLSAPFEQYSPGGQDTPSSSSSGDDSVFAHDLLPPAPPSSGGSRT

c-Src = assay: as above
MERTK = MERTK (UniProt Q12866); assay: as above
Jak2 = Jak2 (UniProt O60674); assay: as above
Sequence of Jak2 (O60674 whole entry, looked up): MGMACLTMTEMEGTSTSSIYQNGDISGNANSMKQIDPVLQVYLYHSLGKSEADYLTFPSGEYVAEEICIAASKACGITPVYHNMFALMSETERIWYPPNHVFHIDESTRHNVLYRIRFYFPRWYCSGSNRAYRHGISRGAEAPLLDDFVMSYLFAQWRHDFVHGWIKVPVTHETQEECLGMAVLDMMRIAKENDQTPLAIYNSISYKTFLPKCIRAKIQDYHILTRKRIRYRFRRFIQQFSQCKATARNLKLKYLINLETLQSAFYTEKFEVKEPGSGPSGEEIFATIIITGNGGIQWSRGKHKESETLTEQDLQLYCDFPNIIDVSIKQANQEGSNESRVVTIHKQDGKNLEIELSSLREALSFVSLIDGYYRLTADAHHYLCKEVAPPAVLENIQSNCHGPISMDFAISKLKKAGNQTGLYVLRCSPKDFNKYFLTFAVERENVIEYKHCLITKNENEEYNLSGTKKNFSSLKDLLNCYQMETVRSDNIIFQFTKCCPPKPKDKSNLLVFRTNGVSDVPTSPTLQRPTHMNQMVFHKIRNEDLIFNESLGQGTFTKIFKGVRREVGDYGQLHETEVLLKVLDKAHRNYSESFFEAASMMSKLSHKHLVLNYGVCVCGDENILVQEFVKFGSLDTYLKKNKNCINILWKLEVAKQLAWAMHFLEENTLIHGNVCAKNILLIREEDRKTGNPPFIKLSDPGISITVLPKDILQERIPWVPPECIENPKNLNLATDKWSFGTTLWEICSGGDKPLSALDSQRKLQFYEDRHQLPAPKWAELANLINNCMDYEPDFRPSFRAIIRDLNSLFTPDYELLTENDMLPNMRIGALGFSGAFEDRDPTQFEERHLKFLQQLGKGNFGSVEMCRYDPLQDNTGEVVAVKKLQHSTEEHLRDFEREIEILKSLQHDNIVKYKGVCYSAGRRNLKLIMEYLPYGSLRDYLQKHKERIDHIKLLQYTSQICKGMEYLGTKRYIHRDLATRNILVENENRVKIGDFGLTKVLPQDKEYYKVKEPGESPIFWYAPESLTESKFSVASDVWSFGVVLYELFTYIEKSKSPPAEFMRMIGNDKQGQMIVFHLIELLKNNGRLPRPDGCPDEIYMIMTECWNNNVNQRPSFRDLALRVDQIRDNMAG

Fer (mouse) = assay: as above
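For SH2 binding enrichment of the phosphorylated peptide, bacterial display in this document: peptide library displayed on the E. coli surface as eCPX fusions, selected cells deep-sequenced, score is each peptide's frequency after selection divided by its frequency in the input.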
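For phosphorylation enrichment, bacterial display in this document: 11-residue human phosphosite peptides and single-mutation variants displayed on the E. coli surface, counted by deep sequencing, each peptide's frequency after selection divided by its frequency in the unselected input library; frequency after pTyr selection over input frequency; kinase dosed for 20-30% of maximal phosphorylation in three min.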

Sequence of Grb2 SH2 (P62993 whole entry, looked up): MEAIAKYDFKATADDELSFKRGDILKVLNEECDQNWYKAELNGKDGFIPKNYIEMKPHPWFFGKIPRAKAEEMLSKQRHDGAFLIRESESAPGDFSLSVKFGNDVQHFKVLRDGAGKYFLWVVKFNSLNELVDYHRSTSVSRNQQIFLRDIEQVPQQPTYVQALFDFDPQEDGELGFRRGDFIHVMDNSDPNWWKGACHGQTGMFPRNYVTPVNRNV

Row | Sequence | SH2 binding enrichment (SHP2-C SH2) | SH2 binding enrichment (c-Src SH2) | SH2 binding enrichment (Grb2 SH2) | phosphorylation enrichment (Fyn) | phosphorylation enrichment (c-Abl (mouse)) | phosphorylation enrichment (FGFR1) | phosphorylation enrichment (EPHB2) | phosphorylation enrichment (Hck) | phosphorylation enrichment (Fes) | phosphorylation enrichment (AncSZ) | phosphorylation enrichment (EPHB1) | phosphorylation enrichment (FGFR3) | phosphorylation enrichment (c-Src) | phosphorylation enrichment (MERTK) | phosphorylation enrichment (Jak2) | phosphorylation enrichment (Fer (mouse))
1 | RLSVDYGKKSK [TUBA3E_Y161_S162G] | 0.843 | 0.83 | 1.04 | 0.702 | 0.553 | 0.534 | 0.671 | 0.511 | 0.879 | 0.613 | 0.471 | 0.642 | 0.396 | 0.389 | 0.922 | 0.377
2 | SHRQDYLVGNK [GSTA1_Y147_G144R] | 0.802 | 0.501 | 0.55 | 0.435 | 0.867 | 0.324 | 0.431 | 0.397 | 0.665 | 0.441 | 0.488 | 0.415 | 0.385 | 0.311 | 0.466 | 0.334
3 | HQEPVYSVAFS [TBL1X_Y509] | 0.856 | 0.533 | 1.08 | 15.6 | 30.7 | 4.88 | 31.1 | 14.2 | 2.74 | 4.16 | 25.8 | 3.89 | 9.13 | 14.5 | 0.688 | 24.1
4 | AHLLQYNHQVK [LGALS3_Y221_R224Q] | 0.401 | 0.503 | 0.631 | 0.706 | 0.474 | 0.579 | 0.505 | 0.508 | 0.9 | 0.706 | 0.503 | 0.545 | 0.459 | 0.521 | 0.517 | 0.583
5 | TNLVPYPCIHF [TUBA1A_Y262_R264C] | 0.802 | 0.591 | 0.894 | 0.492 | 0.646 | 0.546 | 0.557 | 0.534 | 0.96 | 0.975 | 0.599 | 0.66 | 0.519 | 0.578 | 0.753 | 0.517
6 | ENELTYYCCKK [CD59_Y86] | 0.82 | 0.483 | 0.953 | 1.72 | 1.26 | 2.21 | 0.97 | 2.47 | 0.955 | 1.57 | 0.505 | 1.22 | 2.74 | 1.08 | 1.77 | 0.779
7 | FSLPAYMDRRD [COX4I1_Y38] | 0.72 | 0.626 | 0.772 | 0.355 | 0.87 | 0.464 | 0.471 | 0.492 | 0.815 | 0.873 | 0.459 | 0.622 | 0.424 | 0.425 | 0.696 | 0.432
8 | HMRLRYLAAEE [CEP120_Y884_Q879H] | 1.39 | 1.18 | 1.14 | 0.722 | 1.3 | 0.412 | 0.552 | 0.53 | 1.89 | 1.22 | 0.587 | 0.939 | 0.659 | 0.452 | 1.03 | 0.75
9 | YSNKLHYQLEQ [PDPR_Y109_Y109H] | 0.54 | 0.606 | 0.98 | 0.568 | 0.495 | 0.435 | 0.439 | 0.535 | 0.782 | 1.12 | 0.498 | 0.592 | 0.553 | 0.484 | 0.757 | 0.461
10 | FPKVRYHWLVL [APTX_Y214_A212V_YF] | 0.999 | 0.892 | 1.31 | 0.42 | 0.978 | 0.428 | 0.672 | 0.425 | 1.21 | 0.994 | 0.81 | 0.631 | 0.513 | 0.461 | 1.18 | 0.529
11 | TKAEKYVNKPK [PLCG1_Y991_A995P] | 1.16 | 0.999 | 1.05 | 0.398 | 0.942 | 0.594 | 0.376 | 0.559 | 0.714 | 0.72 | 0.336 | 0.534 | 0.467 | 0.423 | 0.596 | 0.442
12 | LNERHYGALIG [BPGM_Y92] | 0.74 | 0.613 | 0.871 | 0.514 | 0.461 | 0.42 | 0.469 | 0.561 | 0.609 | 0.534 | 0.319 | 0.47 | 0.639 | 0.536 | 0.571 | 0.459
13 | ALRHYYKLNII [ETV6_Y402] | 1.42 | 1.35 | 1.54 | 0.506 | 0.839 | 1.3 | 0.533 | 0.527 | 1.28 | 0.968 | 0.579 | 1.36 | 0.427 | 0.522 | 1.3 | 0.693
14 | TVLEPYADPFF [ZC3H18_Y367_YF] | 0.673 | 1.32 | 0.779 | 0.526 | 0.565 | 0.753 | 0.5 | 0.65 | 0.879 | 1.16 | 0.432 | 0.611 | 0.517 | 0.408 | 0.906 | 0.536
15 | KGERGYPGTPG [COL4A1_Y348] | 0.77 | 0.482 | 0.832 | 0.311 | 0.42 | 0.354 | 0.372 | 0.38 | 0.433 | 0.384 | 0.336 | 0.406 | 0.419 | 0.356 | 0.359 | 0.399
16 | VQNIVYRTASI [CYP39A1_Y102] | 0.889 | 0.447 | 0.689 | 0.382 | 0.467 | 0.414 | 0.396 | 0.36 | 0.619 | 0.706 | 0.335 | 0.442 | 0.356 | 0.334 | 0.581 | 0.34
17 | GTYEDYVEGLR [MYL6_Y89] | 0.645 | 0.766 | 0.777 | 1.14 | 0.748 | 0.617 | 1.19 | 0.726 | 1.22 | 1.31 | 1.31 | 0.743 | 1.43 | 0.513 | 0.885 | 0.579

Row | Sequence | SH2 binding enrichment (SHP2-C SH2) | SH2 binding enrichment (c-Src SH2) | SH2 binding enrichment (Grb2 SH2) | phosphorylation enrichment (Fyn) | phosphorylation enrichment (c-Abl (mouse)) | phosphorylation enrichment (FGFR1) | phosphorylation enrichment (EPHB2) | phosphorylation enrichment (Hck) | phosphorylation enrichment (Fes) | phosphorylation enrichment (AncSZ) | phosphorylation enrichment (EPHB1) | phosphorylation enrichment (FGFR3) | phosphorylation enrichment (c-Src) | phosphorylation enrichment (MERTK) | phosphorylation enrichment (Jak2) | phosphorylation enrichment (Fer (mouse))
18 | GYQPDYGQPAG [SYP_Y278] | 0.702 | 0.52 | 0.657 | 0.384 | 0.556 | 0.465 | 0.378 | 0.409 | 0.671 | 0.701 | 0.442 | 0.551 | 0.342 | 0.334 | 0.564 | 0.38
19 | CSPLLYKVIMS [OR8D4_Y132_R133K] | 0.635 | 0.488 | 0.882 | 0.507 | 0.955 | 0.518 | 0.648 | 0.566 | 1.21 | 1.06 | 0.693 | 0.819 | 0.445 | 0.6 | 0.989 | 0.611
20 | LERFIYNPEEF [HLA-DPB1_Y59_R61P_YF] | 0.866 | 0.399 | 0.791 | 1.75 | 1.09 | 0.934 | 0.708 | 1.33 | 1.75 | 2.02 | 0.738 | 1.71 | 2.4 | 0.618 | 1.32 | 0.927
21 | SPYAVYRFFTF [RPGRIP1_Y826] | 0.574 | 0.447 | 0.728 | 1.79 | 1.67 | 0.784 | 0.555 | 1.21 | 1.33 | 1.08 | 0.714 | 0.783 | 2.4 | 0.797 | 1.12 | 0.875
22 | CTTIHYNFMSN [TP53_Y234_C238S_YF] | 0.835 | 0.743 | 0.851 | 0.437 | 0.833 | 0.561 | 0.58 | 0.545 | 1.24 | 1.12 | 0.621 | 0.745 | 0.483 | 0.527 | 1.07 | 0.562
23 | HLEKKYVRRDS [CSF1R_Y708] | 1.25 | 0.876 | 1.02 | 1.64 | 2.1 | 2.42 | 2.23 | 1.23 | 4.2 | 2.92 | 1.61 | 0.997 | 4.16 | 6.59 | 6.5 | 1.67
24 | NPEACYQRLKK [TK2_Y190_T188A] | 0.949 | 1.1 | 1.11 | 0.474 | 0.558 | 0.381 | 0.507 | 0.802 | 0.597 | 0.63 | 0.417 | 0.471 | 0.685 | 0.484 | 0.892 | 0.419
25 | AAVPAYDKIQV [STXBP2_Y401_R405Q] | 0.546 | 6.48 | 0.759 | 0.612 | 0.96 | 0.66 | 0.417 | 1.09 | 1.43 | 0.92 | 0.793 | 0.666 | 0.593 | 0.688 | 1.06 | 5.58
26 | EARRVYGDIIY [ALDH5A1_Y175_H180Y] | 0.604 | 0.504 | 0.805 | 1.59 | 0.597 | 0.491 | 0.725 | 1.27 | 0.834 | 0.683 | 0.455 | 0.579 | 1.14 | 0.42 | 0.813 | 0.648
27 | EALDFYGELRT [PTEN_Y155_V158L] | 0.731 | 0.503 | 0.775 | 0.933 | 0.843 | 0.571 | 0.764 | 1.25 | 1.48 | 1.27 | 0.771 | 0.964 | 0.805 | 0.453 | 1.33 | 0.779
28 | GHLFANDWISI [BEST1_Y227_Y227N_YF] | 0.708 | 0.493 | 0.904 | 0.399 | 0.627 | 0.43 | 0.625 | 0.502 | 0.789 | 0.703 | 0.424 | 0.484 | 0.469 | 0.421 | 0.782 | 0.427
29 | GIVTGYLVLKE [DNMT3B_Y588_A585V] | 1.31 | 0.735 | 1.11 | 0.492 | 0.833 | 0.553 | 0.494 | 0.505 | 1.4 | 1.07 | 0.684 | 0.895 | 0.448 | 0.524 | 1.31 | 0.647
30 | RDLRTYIMPAH [PNMT_Y256] | 0.734 | 0.777 | 0.965 | 0.577 | 0.772 | 0.694 | 0.815 | 0.682 | 0.866 | 0.921 | 5.27 | 0.518 | 0.623 | 0.572 | 0.893 | 0.419
31 | IRTIDYRFTVC [IDS_Y497_W502C_YF] | 0.739 | 0.407 | 0.85 | 0.444 | 0.952 | 0.561 | 0.579 | 0.581 | 1.38 | 1.22 | 0.787 | 0.832 | 0.469 | 0.396 | 1.14 | 0.518
32 | ARLDEYIAIAK [RCOR3_Y46_K42R] | 0.702 | 0.505 | 0.664 | 0.391 | 0.516 | 0.446 | 0.51 | 0.447 | 0.621 | 0.649 | 0.442 | 0.562 | 0.458 | 0.598 | 0.683 | 0.428
33 | ERTIEYLEEVV [HADHA_Y239_A244V] | 0.594 | 0.451 | 0.836 | 0.466 | 0.739 | 0.55 | 0.615 | 0.498 | 1.17 | 1.18 | 0.559 | 0.712 | 0.487 | 0.386 | 1.07 | 0.523
